Experimental data: the supplement of paper PMC9112550, “Optimization of the antimicrobial peptide Bac7 by deep mutational scanning” (BMC Biology, 2022)

Tested on: Escherichia coli TOP10
Experiment: shrunken log2 fold change of peptide-encoding DNA abundance (4.5 h post-induction vs induction); higher = less antimicrobial activity (less host growth inhibition)
Settings: time post-induction: 4.5 h; library: site-saturation at positions 5, 18, 19, 20
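Also: peptides expressed intracellularly from a pBAD plasmid library in pooled LB shake-flask culture, induced with 0.3% L-arabinose, DNA abundance read by NGS, three biological replicates, DESeq2 with apeglm shrinkage.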

| Sequence | shrunken log2 fold change |
| --- | --- |
| RRIRLRPPRLPRPRPRPWRAPRP | 0.392 |
| RRIRLRPPRLPRPRPRPNGQPRP | 0.00827 |
| RRIRERPPRLPRPRPRPVGNPRP | -0.191 |
| RRIRIRPPRLPRPRPRPQQVPRP | 0.00944 |
| RRIRVRPPRLPRPRPRPSLKPRP | 0.215 |
| RRIRNRPPRLPRPRPRPICSPRP | -0.0669 |
| RRIRARPPRLPRPRPRPHLFPRP | 0.117 |
| RRIRWRPPRLPRPRPRPSLTPRP | 0.282 |
| RRIRHRPPRLPRPRPRPHHFPRP | -0.0916 |
| RRIRYRPPRLPRPRPRPKYWPRP | -0.726 |
| RRIRSRPPRLPRPRPRPPMLPRP | 0.0967 |
| RRIRHRPPRLPRPRPRPVEGPRP | 0.105 |
| RRIRQRPPRLPRPRPRPWCHPRP | -0.169 |
| RRIRIRPPRLPRPRPRPVCAPRP | -0.0399 |
| RRIRYRPPRLPRPRPRPCKDPRP | -1.14 |
| RRIRTRPPRLPRPRPRPAPVPRP | 0.0626 |
| RRIRERPPRLPRPRPRPVFVPRP | -0.178 |
| RRIRCRPPRLPRPRPRPSLTPRP | -0.538 |
| RRIRRRPPRLPRPRPRPFCRPRP | 0.551 |
| RRIRFRPPRLPRPRPRPRWFPRP | -0.111 |
| RRIRVRPPRLPRPRPRPPVAPRP | 0.466 |
| RRIRPRPPRLPRPRPRPEKYPRP | -0.562 |
| RRIRPRPPRLPRPRPRPPLYPRP | 0.217 |
| RRIRIRPPRLPRPRPRPCDNPRP | -0.178 |
| RRIRQRPPRLPRPRPRPVLSPRP | -0.0147 |

| Sequence | shrunken log2 fold change |
| --- | --- |
| RRIRSRPPRLPRPRPRPMTIPRP | -0.0727 |
| RRIRHRPPRLPRPRPRPPVFPRP | 0.612 |
| RRIRPRPPRLPRPRPRPYELPRP | -0.0423 |
| RRIRHRPPRLPRPRPRPKASPRP | -0.0128 |
| RRIRFRPPRLPRPRPRPMYIPRP | -1.09 |
| RRIRARPPRLPRPRPRPFLCPRP | 0.0599 |
| RRIRCRPPRLPRPRPRPCFCPRP | -0.367 |
| RRIRPRPPRLPRPRPRPEEHPRP | -0.0242 |
| RRIRNRPPRLPRPRPRPQDPPRP | -0.296 |
| RRIRQRPPRLPRPRPRPYYVPRP | -0.0108 |
| RRIRHRPPRLPRPRPRPPREPRP | 0.204 |
| RRIRERPPRLPRPRPRPQMHPRP | -0.634 |
| RRIRQRPPRLPRPRPRPNYDPRP | -0.257 |
| RRIRVRPPRLPRPRPRPINGPRP | -0.17 |
| RRIRYRPPRLPRPRPRPMRSPRP | -0.0201 |
| RRIRHRPPRLPRPRPRPLANPRP | -0.263 |
| RRIRERPPRLPRPRPRPKFGPRP | 0.37 |
| RRIRDRPPRLPRPRPRPYKNPRP | -0.454 |
| RRIRYRPPRLPRPRPRPPHQPRP | 0.378 |
| RRIRDRPPRLPRPRPRPHNIPRP | -0.53 |
| RRIRVRPPRLPRPRPRPGYVPRP | -0.351 |
| RRIRCRPPRLPRPRPRPSVVPRP | -0.261 |
| RRIRTRPPRLPRPRPRPIEVPRP | 0.131 |
| RRIRCRPPRLPRPRPRPDNFPRP | -0.489 |
| RRIRQRPPRLPRPRPRPCREPRP | -0.0541 |

| Sequence | shrunken log2 fold change |
| --- | --- |
| RRIRLRPPRLPRPRPRPWVRPRP | -0.00819 |
| RRIRKRPPRLPRPRPRPKCRPRP | 0.175 |
| RRIRPRPPRLPRPRPRPIPIPRP | -0.065 |
| RRIRMRPPRLPRPRPRPKYTPRP | 0.169 |
| RRIRHRPPRLPRPRPRPVCYPRP | -0.663 |
| RRIRKRPPRLPRPRPRPGKDPRP | 0.173 |
| RRIRWRPPRLPRPRPRPLSIPRP | -0.0528 |
| RRIRKRPPRLPRPRPRPPELPRP | 0.23 |
| RRIRIRPPRLPRPRPRPENNPRP | -0.36 |
| RRIRFRPPRLPRPRPRPGCLPRP | -0.0626 |
| RRIRNRPPRLPRPRPRPMLPPRP | 0.00241 |
| RRIRWRPPRLPRPRPRPQAQPRP | 0.00496 |
| RRIRIRPPRLPRPRPRPARSPRP | 0.0389 |
| RRIRWRPPRLPRPRPRPADAPRP | 0.739 |
| RRIRDRPPRLPRPRPRPGYHPRP | -0.071 |
| RRIRGRPPRLPRPRPRPLQLPRP | 0.447 |
| RRIRARPPRLPRPRPRPKCDPRP | 0.39 |
| RRIRPRPPRLPRPRPRPDWGPRP | 0.107 |
| RRIRKRPPRLPRPRPRPKLHPRP | 0.129 |
| RRIRMRPPRLPRPRPRPTRWPRP | 2.21 |
| RRIRGRPPRLPRPRPRPPWQPRP | 0.691 |
| RRIRRRPPRLPRPRPRPARVPRP | 0.349 |
| RRIRSRPPRLPRPRPRPKISPRP | 0.0778 |
| RRIRRRPPRLPRPRPRPCHWPRP | 0.092 |
| RRIRNRPPRLPRPRPRPPAYPRP | 0.0856 |

| Sequence | shrunken log2 fold change |
| --- | --- |
| RRIRGRPPRLPRPRPRPQMPPRP | 0.225 |
| RRIRWRPPRLPRPRPRPVATPRP | 0.991 |
| RRIRCRPPRLPRPRPRPPMDPRP | 0.0314 |
| RRIRIRPPRLPRPRPRPYSVPRP | -0.07 |
| RRIRWRPPRLPRPRPRPICIPRP | -0.191 |
| RRIRPRPPRLPRPRPRPYEGPRP | -0.0988 |
| RRIRQRPPRLPRPRPRPIEPPRP | -0.0381 |
| RRIRKRPPRLPRPRPRPRAGPRP | 0.48 |
| RRIRDRPPRLPRPRPRPHCNPRP | -0.226 |
| RRIRYRPPRLPRPRPRPEDTPRP | -0.00443 |
| RRIRMRPPRLPRPRPRPECAPRP | 3.56 |
| RRIRFRPPRLPRPRPRPMIYPRP | -0.441 |
| RRIRARPPRLPRPRPRPTVCPRP | 0.505 |
| RRIRHRPPRLPRPRPRPILYPRP | -0.123 |
| RRIRSRPPRLPRPRPRPYEYPRP | -0.55 |
| RRIRPRPPRLPRPRPRPQVCPRP | 0.129 |
| RRIRRRPPRLPRPRPRPLQKPRP | 0.44 |
| RRIRFRPPRLPRPRPRPFPFPRP | -0.177 |
| RRIRNRPPRLPRPRPRPLAYPRP | -0.175 |
| RRIRQRPPRLPRPRPRPGNAPRP | 0.322 |
| RRIRWRPPRLPRPRPRPIIMPRP | -0.241 |
| RRIRGRPPRLPRPRPRPIGPPRP | 0.5 |
| RRIRVRPPRLPRPRPRPISDPRP | -0.0883 |
| RRIRFRPPRLPRPRPRPDVVPRP | -0.181 |
| RRIRTRPPRLPRPRPRPSYQPRP | -0.18 |

| Sequence | shrunken log2 fold change |
| --- | --- |
| RRIRMRPPRLPRPRPRPNEHPRP | 0.0235 |
| RRIRARPPRLPRPRPRPGDGPRP | 0.939 |
| RRIRTRPPRLPRPRPRPWALPRP | -0.23 |
| RRIRFRPPRLPRPRPRPPQFPRP | 0.0547 |
| RRIRKRPPRLPRPRPRPFKTPRP | 0.427 |
| RRIRHRPPRLPRPRPRPSFAPRP | 0.0263 |
| RRIRARPPRLPRPRPRPGYDPRP | -0.0224 |
| RRIRLRPPRLPRPRPRPQFDPRP | -0.293 |
| RRIRVRPPRLPRPRPRPWHCPRP | -0.0339 |
| RRIRNRPPRLPRPRPRPFFHPRP | -0.446 |
| RRIRDRPPRLPRPRPRPNCMPRP | 0.111 |
| RRIRMRPPRLPRPRPRPPPEPRP | 1.82 |
| RRIRQRPPRLPRPRPRPSPYPRP | -0.187 |
| RRIRLRPPRLPRPRPRPAKYPRP | -0.694 |
| RRIRCRPPRLPRPRPRPWIVPRP | -0.0435 |
| RRIRPRPPRLPRPRPRPWSHPRP | -0.157 |
| RRIRMRPPRLPRPRPRPFLIPRP | -0.34 |
| RRIRNRPPRLPRPRPRPWALPRP | -0.0675 |
| RRIRFRPPRLPRPRPRPCYEPRP | -0.228 |
| RRIRPRPPRLPRPRPRPMFKPRP | -0.0861 |
| RRIRTRPPRLPRPRPRPWPTPRP | 0.371 |
| RRIRYRPPRLPRPRPRPRYNPRP | -0.339 |
| RRIRHRPPRLPRPRPRPDHKPRP | -0.274 |
| RRIRQRPPRLPRPRPRPYFGPRP | -0.305 |
| RRIRPRPPRLPRPRPRPEIQPRP | 0.07 |

| Sequence | shrunken log2 fold change |
| --- | --- |
| RRIRRRPPRLPRPRPRPKCHPRP | 0.0704 |
| RRIRGRPPRLPRPRPRPWFAPRP | 0.0421 |
| RRIRVRPPRLPRPRPRPYRIPRP | 0.0112 |
| RRIRFRPPRLPRPRPRPVCWPRP | 0.399 |
| RRIRGRPPRLPRPRPRPYFCPRP | -0.119 |
| RRIRMRPPRLPRPRPRPKSFPRP | -0.015 |
| RRIRKRPPRLPRPRPRPRNHPRP | 0.197 |
| RRIRARPPRLPRPRPRPVDAPRP | 1.28 |
| RRIRPRPPRLPRPRPRPNCWPRP | 1.74 |
| RRIRPRPPRLPRPRPRPVACPRP | -0.0233 |
| RRIRYRPPRLPRPRPRPKCFPRP | -0.0925 |
| RRIRLRPPRLPRPRPRPFNCPRP | 0.0515 |
| RRIRKRPPRLPRPRPRPSPGPRP | 0.26 |
| RRIRSRPPRLPRPRPRPFSQPRP | -1.07 |
| RRIRTRPPRLPRPRPRPAHFPRP | 0.13 |
| RRIRCRPPRLPRPRPRPHVLPRP | -0.172 |
| RRIRPRPPRLPRPRPRPQTHPRP | -0.272 |
| RRIRFRPPRLPRPRPRPFGYPRP | -0.113 |
| RRIRYRPPRLPRPRPRPDDVPRP | 0.0235 |
| RRIRARPPRLPRPRPRPDCGPRP | 0.966 |
| RRIRNRPPRLPRPRPRPYTIPRP | -0.138 |
| RRIRERPPRLPRPRPRPFSWPRP | 0.0616 |
| RRIRRRPPRLPRPRPRPKNIPRP | -0.136 |
| RRIRSRPPRLPRPRPRPFWDPRP | 0.0853 |
| RRIRWRPPRLPRPRPRPTDSPRP | -0.195 |
